Data from publication PMC10267556 (Nature Communications, 2023).

Experiments:
Assay in all cases: SPR
Conditions in all cases: both partners purified
[1] = target: T1, RBD (BA.4/5) (SARS-CoV-2, Omicron BA.4/5, strain)
T1 construct: source: bought: Sino Biological

[2] = target: T2, Spike (BA.1) (SARS-CoV-2, Omicron BA.1, strain)
T2 construct: source: bought: Sino Biological

[3] = target: T3, Spike (BA.4/5) (SARS-CoV-2, Omicron BA.4/5, strain)
T3 construct: source: bought: Sino Biological

[4] = target: T4, RBD (BA.1) (SARS-CoV-2 Omicron BA.1, strain)
T4 construct: source: bought: Sino Biological

[5] = target: T5, Spike (XBB) (SARS-CoV-2, Omicron XBB, strain)
T5 construct: source: bought: Sino Biological

[6] = target: T6, Spike (XBB.1.5) (SARS-CoV-2, Omicron XBB.1.5, strain)
T6 construct: source: bought: Sino Biological

[7] = target: SARS-CoV-2 Omicron XBB spike protein (SARS-CoV-2 Omicron XBB, strain)
[8] = target: SARS-CoV-2 Omicron XBB.1.5 spike protein (SARS-CoV-2 Omicron XBB.1.5, strain)

B1: TH027 (antibody, V domains shown)
VH: QITLKESGLTLVRPTQTLTLTCTFSGFSLINSGVGVGWIRQPPGKALEWLALIYWDDDKRYNPSLRSRLTISKATSKNQVVLTMTNMDPVDTATYYCTHRGPGHNTPIYFEFWGQGALVTVSS
VL: QSVLTQSPSASGTPGQRVTISCSGSRSNIGSNFVYWFHQLPGTAPKLLIHSNDQRPSGVPDRFSGSNSGTSASLAISGLRSEDEADYYCAAWDDSLSSWVFGGGTKLTVL
notes: IgG1 (D2:p3)
Kd [1]: 0.752 nM
Kd [2]: 7.06 nM
Kd [3]: 1.86 nM
Kd [4]: 0.838 nM

B2: TH236 (antibody, V domains shown)
VH: QVQLVESGGGLVKPGGSLRLSCAASGFMISDSYMNWIRQPPGKGLEWVSYISSNGYAIYYGDSVKGRFTISRDNAKNFLYLQMNSLRVEDTAVYYCAREQPGGYYDSSGYRLDPWGQGILVTVSS
VL: QSALTQPASVSGSPGQSITISCTGTSSDVGGYNYVSWYQQHPGKAPKLMIYDVSNRPSGVSNRFSGSKSGNTASLTISGLQAEDEADYYCSSYTSSSTLYVFGTGTKVTVL
notes: IgG1 (D2:p3)
Kd [1]: 0.621 nM
Kd [2]: 0.0867 nM
Kd [3]: 0.602 nM
Kd [4]: 0.3 nM

B3: TH272 (antibody, V domains shown)
VH: QITLKESGPTLVKPTQTLTLTCTFSGFSLSTGGVSVGWIRQPPGKALEWLALIYWDDDKRYSPSLESRLTITKDTSKNLVVLTLTNMDPVDTATYYCAHKTIPTIFDYWGQGTLVTVSS
VL: QSALTQPASVSGSPGQSITISCTATSSDVGAYQYVSWYQQYPGKAPKLMIYEVSKRPSGVSNRFSGSKSGNTASLTISGLQAEDDAYYYCNSYTTSSVVFGGGTKLTVL
notes: IgG1 (D2:p3)
Kd [1]: 0.045 nM
Kd [2]: 1.33 nM
Kd [3]: 0.000976 nM
Kd [4]: 0.296 nM

B4: TH003 (antibody, V domains shown)
VH: EVRLLESGGGLVQPGGSLRLSCAASGFTFNDYAMSWVRQAPGEGLEWVSTISYSGGSTYYADSVKGRFTISRDNSKNMLYLQMNSLRAEDTALYYCANGVATADWYFDLWGRGTLVTVSS
VL: QSALTQPRSVSGSPGQSVTISCTGTSSDVGGYNYVSWFQHHPGKAPKLMIYDVTDRPSGVPDRFSGSKSGNTASLTISGLQAEDAADYYCCSYAGTYTVFGGGTKLTVL
notes: IgG1 (D2:p3)
Kd [1]: 0.484 nM
Kd [2]: 2.55 nM
Kd [3]: 1.59 nM
Kd [4]: 1.29 nM

B5: TH132 (antibody, V domains shown)
VH: EVQLVESGGGLVQPGGSLRLSCAASGITVSRNYMSWVRQAPGKGLEWVSVMFAGGSTFYADSVKGRFTISRDNSKNTLYLQMNSLRAEDTAVYYCARDLGVVGATDYWGQGTLVTVSS
VL: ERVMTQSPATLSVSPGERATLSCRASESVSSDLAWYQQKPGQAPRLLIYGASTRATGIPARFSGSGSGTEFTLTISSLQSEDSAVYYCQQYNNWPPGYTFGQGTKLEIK
notes: IgG1 (D2:p3)
Kd [1]: 0.484 nM
Kd [5]: 1.34 nM
Kd [6]: 1.09 nM
Kd [2]: 1.26 nM
Kd [3]: 0.00171 nM
Kd [4]: 0.726 nM

B6: TH281 (antibody, V domains shown)
VH: EVQLVESGGGLVQPGGSLRLSCAASEITVSRNYMSWVRQAPGKGLEWVSVMFAGGSTFYADSVKGRFTISRDNSKNTLYLQMNSLRAEDTAVYYCARDLGVVGATDYWGQGTLVTVSS
VL: not shown
notes: IgG1 (D2:p3)
Kd [1]: 0.00781 nM
Kd [2]: 0.517 nM
Kd [4]: 0.119 nM

B7: TH132 monoclonal antibody (IgG) (antibody, V domains shown)
VH: EVQLVESGGGLVQPGGSLRLSCAASGITVSRNYMSWVRQAPGKGLEWVSVMFAGGSTFYADSVKGRFTISRDNSKNTLYLQMNSLRAEDTAVYYCARDLGVVGATDYWGQGTLVTVSS
VL: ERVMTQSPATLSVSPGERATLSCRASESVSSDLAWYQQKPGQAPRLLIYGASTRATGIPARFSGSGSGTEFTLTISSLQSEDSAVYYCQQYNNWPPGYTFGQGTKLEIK
notes: copies: 2 + 2
Kd [7]: ~1 nM
Kd [8]: ~1 nM
